The target in experiment [1] is infectious CHIKV particles (strain 181/25) (chikungunya virus strain 181/25). Description: cryo-EM structure.
Experiment [2] has as its target CHIKV virus-like particles (strain 37997), produced from C-E3-E2-6K-E1 (chikungunya virus strain 37997). Kind of experiment: cryo-EM structure.
Experiment [3] has the same target. Description: SPR.

The text below walks through data of PMC7227486.

“mammalian cell-generated murine Mxra8 (residues 23-336), cleaved from Mxra8-HRV-Fc (from UniProt Q9DBV4 23-336) (domain or fragment)” returned a stoichiometry N (Mxra8 proteins per particle) in experiment [1] of 60. In experiment [2], this substance gave a stoichiometry N (Mxra8 molecules per virion) of 240.

For the substance “recombinant murine Mxra8 (soluble; preparation not stated for this experiment) (from UniProt Q9DBV4 20-340) (domain or fragment)”, in experiment [3], the KD, high affinity site (kinetically derived, two-site model) was found to be 84 nM and the KD, lower affinity sites (kinetically derived, two-site model) is 270 nM.
